The values that follow are results of earlier work, collected in patent publication US20230149374A1, “METHODS AND COMPOSITIONS FOR TREATING ATHEROSCLEROSIS” (Sanford Burnham Prebys Medical Discovery Institute, priority 2021, published 2023).

This data set relates to patient with TNAP deficiency. Conditions: administration for 8 months, very high blood TNAP activity; cited from earlier work.

B1: recombinant TNAP: recombinant TNAP administered for 8 months in a patient with TNAP deficiency (protein, UniProt P05186 18-501, looked up)
Alkaline phosphatase, …: LVPEKEKDPKYWRDQAQETLKYALELQKLNTNVAKNVIMFLGDGMGVSTVTAARILKGQLHHNPGEETRLEMDKFPFVALSKTYNTNAQVPDSAGTATAYLCGVKANEGTVGVSAATERSRCNTTQGNEVTSILRWAKDAGKSVGIVTTTRVNHATPSAAYAHSADRDWYSDNEMPPEALSQGCKDIAYQLMHNIRDIDVIMGGGRKYMYPKNKTDVEYESDEKARGTRLDGLDLVDTWKSFKPRYKHSHFIWNRTELLTLDPHNVDYLLGLFEPGDMQYELNRNNVTDPSLSEMVVVAIQILRKNPKGFFLLVEGGRIDHGHHEGKAKQALHEAVEMDRAIGQAGSLTSSEDTLTVVTADHSHVFTFGGYTPRGNSIFGLAPMLSDTDKKPFTAILYGNGPGYKVVGGERENVSMVDYAHNNYQAQSAVPLRHETHGGEDVAVFSKGPMAHLLHGVHEQNYVPHVMAYAACIGANLGHCAPAS
For B1, the vascular calcium score result is “did not increase”.
